Measured values taken from US20260209362A1 (VIB VZW, published 2026).

T1: human IL-12Rβ2 expressed on cells (human, UniProt Q99665 24-862)
T1 sequence: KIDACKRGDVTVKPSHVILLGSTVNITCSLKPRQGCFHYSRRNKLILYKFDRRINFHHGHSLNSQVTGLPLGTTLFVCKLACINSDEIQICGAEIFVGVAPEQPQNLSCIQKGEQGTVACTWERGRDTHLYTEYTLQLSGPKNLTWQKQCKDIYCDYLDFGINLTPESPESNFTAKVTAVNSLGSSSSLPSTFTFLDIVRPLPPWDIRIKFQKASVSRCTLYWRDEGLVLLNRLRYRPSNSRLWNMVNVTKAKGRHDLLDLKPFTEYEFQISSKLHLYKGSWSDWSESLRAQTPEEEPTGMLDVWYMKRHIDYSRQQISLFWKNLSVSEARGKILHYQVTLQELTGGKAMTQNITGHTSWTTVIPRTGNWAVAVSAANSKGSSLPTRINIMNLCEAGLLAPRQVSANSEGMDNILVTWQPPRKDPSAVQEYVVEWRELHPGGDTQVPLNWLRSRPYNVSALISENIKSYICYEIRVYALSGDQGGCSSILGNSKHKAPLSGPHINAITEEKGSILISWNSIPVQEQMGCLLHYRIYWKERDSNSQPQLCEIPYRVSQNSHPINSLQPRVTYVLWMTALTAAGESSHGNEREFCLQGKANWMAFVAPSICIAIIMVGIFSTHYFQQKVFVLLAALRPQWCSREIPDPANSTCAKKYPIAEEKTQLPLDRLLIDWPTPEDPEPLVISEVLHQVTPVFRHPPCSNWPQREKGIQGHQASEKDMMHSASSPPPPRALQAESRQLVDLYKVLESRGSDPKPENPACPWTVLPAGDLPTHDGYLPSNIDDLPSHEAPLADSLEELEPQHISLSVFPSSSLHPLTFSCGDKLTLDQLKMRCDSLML

T2: biotinylated recombinant human IL-12Rβ2 (human, UniProt Q99665 24-622, random biotinylated)
T2 construct: Recombinant protein produced in-house; also called hIL-12RB2; human IL-12RB2
T2 sequence: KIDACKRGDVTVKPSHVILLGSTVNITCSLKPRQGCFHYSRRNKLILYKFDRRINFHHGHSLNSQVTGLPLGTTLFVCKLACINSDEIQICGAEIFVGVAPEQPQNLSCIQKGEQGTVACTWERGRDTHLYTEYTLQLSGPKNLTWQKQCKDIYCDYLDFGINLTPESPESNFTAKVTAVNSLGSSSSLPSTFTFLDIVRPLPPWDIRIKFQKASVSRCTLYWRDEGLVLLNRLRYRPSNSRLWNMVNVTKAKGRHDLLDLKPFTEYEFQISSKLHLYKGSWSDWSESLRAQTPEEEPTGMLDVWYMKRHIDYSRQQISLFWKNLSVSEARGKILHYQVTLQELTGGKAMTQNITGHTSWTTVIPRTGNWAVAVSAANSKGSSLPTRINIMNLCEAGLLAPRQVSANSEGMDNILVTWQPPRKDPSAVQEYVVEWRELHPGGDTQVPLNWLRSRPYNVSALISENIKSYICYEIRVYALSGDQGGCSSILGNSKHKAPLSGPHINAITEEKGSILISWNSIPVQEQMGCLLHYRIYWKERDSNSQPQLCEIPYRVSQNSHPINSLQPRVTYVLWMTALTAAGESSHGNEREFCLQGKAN

T3: biotinylated recombinant mouse IL-12Rβ2 (mouse, UniProt P97378 24-637, random biotinylated)
T3 construct: Recombinant protein produced in-house; also called mIL-12RB2; mouse IL-12RB2
T3 sequence: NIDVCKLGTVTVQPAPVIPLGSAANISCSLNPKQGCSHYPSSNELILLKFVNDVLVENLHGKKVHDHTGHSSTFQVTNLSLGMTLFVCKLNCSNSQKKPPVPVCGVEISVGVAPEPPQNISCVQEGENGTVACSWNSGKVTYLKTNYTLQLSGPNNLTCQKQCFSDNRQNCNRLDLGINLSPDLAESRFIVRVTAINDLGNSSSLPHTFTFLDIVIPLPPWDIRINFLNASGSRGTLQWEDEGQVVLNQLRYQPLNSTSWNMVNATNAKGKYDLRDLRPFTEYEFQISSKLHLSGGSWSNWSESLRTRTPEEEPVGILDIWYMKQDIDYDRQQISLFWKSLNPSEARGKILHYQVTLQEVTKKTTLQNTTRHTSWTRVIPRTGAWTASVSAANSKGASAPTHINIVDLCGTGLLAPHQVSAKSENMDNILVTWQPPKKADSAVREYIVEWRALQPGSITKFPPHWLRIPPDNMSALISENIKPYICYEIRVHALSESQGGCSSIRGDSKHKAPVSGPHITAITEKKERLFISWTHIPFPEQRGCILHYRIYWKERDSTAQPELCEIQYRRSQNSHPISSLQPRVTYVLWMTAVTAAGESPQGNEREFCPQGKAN


Tests used:
[1] = molecular target: T1, human IL-12Rβ2 expressed on cells; assay: cell-based or functional assay
[2] = molecular target: T2, biotinylated recombinant human IL-12Rβ2; assay: BLI, P.E., off-rate ranking
[3] = molecular target: T2, biotinylated recombinant human IL-12Rβ2; assay: ELISA, P.E., biotinylated antigen
[4] = molecular target: T3, biotinylated recombinant mouse IL-12Rβ2; assay: ELISA, P.E., biotinylated antigen

| Binder | % Specific Cell Lysis at 0.00125 ug/mL [1] [%] | % Specific Cell Lysis at 0.025 ug/mL [1] [%] | % Specific Cell Lysis at 10 ug/mL [1] [%] | Response [2] | koff [2] [s⁻¹] | ELISA hIL-12RB2/control [3] | ELISA mIL-12RB2/control [4] | % Specific Cell Lysis at 0.5 ug/mL [1] [%] |
| --- | --- | --- | --- | --- | --- | --- | --- | --- |
| 20373-FcDE (Fc fusion) VHH-Fc chain: QVQLQESGGGLVQAGGSLVLSCAASGSAALIFLMSWYRQAPGKQRELVAEVSRGGSTTYADSVEGRFTISRDNAKNIVDLQMNSLKPEDTAVYYCKADQNYGDSLRSSWGQGTQVTVSSAPELLGGPDVFLFPPKPKDTLMISRTPEVTCVVVDVSHEDPEVKFNWYVDGVEVHNAKTKPREEQYNSTYRVVSVLTVLHQDWLNGKEYKCKVSNKALPAPEEKTISKAKGQPREPQVYTLPPSRDELTKNQVSLTCLVKGFYPSDIAVEWESNGQPENNYKTTPPVLDSDGSFFLYSKLTVDKSRWQQGNVFSCSVMHEALHNHYTQKSLSLSPGK | 48.9 | 61.1 | 70.7 | – | – | – | – | 67.4 |
| 20399-FcDE (Fc fusion) VHH-Fc chain: QVQLQESGGGLVQPGGSLRLSCAASGSILRINLMGWYRQVPGKQRELVAEMSTGGSTTYVDSVEGRFTISRDNAKNTVYLQMNSLKPEDTAVYYCNAKAWQLGRLENDDWGQGTQVTVSSAPELLGGPDVFLFPPKPKDTLMISRTPEVTCVVVDVSHEDPEVKFNWYVDGVEVHNAKTKPREEQYNSTYRVVSVLTVLHQDWLNGKEYKCKVSNKALPAPEEKTISKAKGQPREPQVYTLPPSRDELTKNQVSLTCLVKGFYPSDIAVEWESNGQPENNYKTTPPVLDSDGSFFLYSKLTVDKSRWQQGNVFSCSVMHEALHNHYTQKSLSLSPGK | 61 | 63.1 | 72.4 | – | – | – | – | 67.1 |
| 20378-FcDE (Fc fusion) VHH-Fc chain: QVQLQESGGGLVQAGDSLRLSCTASGHTFSRYTTIGWFRQAPGKDREFVAAIRWSGDITDYADAVKGRFTISRDNVKNTVYLQMNSLNPEDTAVYYCARGYSEYGVLSRNRGLYAYWGQGTQVTVSSAPELLGGPDVFLFPPKPKDTLMISRTPEVTCVVVDVSHEDPEVKFNWYVDGVEVHNAKTKPREEQYNSTYRVVSVLTVLHQDWLNGKEYKCKVSNKALPAPEEKTISKAKGQPREPQVYTLPPSRDELTKNQVSLTCLVKGFYPSDIAVEWESNGQPENNYKTTPPVLDSDGSFFLYSKLTVDKSRWQQGNVFSCSVMHEALHNHYTQKSLSLSPGK | 52.4 | – | – | – | – | – | – | – |
| 20394-FcDE (Fc fusion) VHH-Fc chain: QVQLQESGGGLVQAGDSLRLSCAASGRTFDTYIVGWFRQAPGKEREFVSALSWSDDTTIRDDSLRGRFTISRDNAKNTVYLLMNSLKPEDTAVYYCAAKAKPPAATWSSYRNREWYDYWGQGTQVTVSSAPELLGGPDVFLFPPKPKDTLMISRTPEVTCVVVDVSHEDPEVKFNWYVDGVEVHNAKTKPREEQYNSTYRVVSVLTVLHQDWLNGKEYKCKVSNKALPAPEEKTISKAKGQPREPQVYTLPPSRDELTKNQVSLTCLVKGFYPSDIAVEWESNGQPENNYKTTPPVLDSDGSFFLYSKLTVDKSRWQQGNVFSCSVMHEALHNHYTQKSLSLSPGK | 54 | 52.1 | 66 | – | – | – | – | – |
| 20372-FcDE (Fc fusion) VHH-Fc chain: QVQLQESGGGLVQAGGSLRLSCAASARTESMYAMAWFRQAPGKEREIVAGIIQSGGTTYISDYMKGRFSIDRGNAENTVYLQMDSLKPEDTAVYSCAAKVSSGTPSDIQISQSRWYDHWGQGTQVTVSSAPELLGGPDVFLFPPKPKDTLMISRTPEVTCVVVDVSHEDPEVKFNWYVDGVEVHNAKTKPREEQYNSTYRVVSVLTVLHQDWLNGKEYKCKVSNKALPAPEEKTISKAKGQPREPQVYTLPPSRDELTKNQVSLTCLVKGFYPSDIAVEWESNGQPENNYKTTPPVLDSDGSFFLYSKLTVDKSRWQQGNVFSCSVMHEALHNHYTQKSLSLSPGK | 51.1 | – | 69.9 | – | – | – | – | 66.9 |

Second part, the binder after the results:

| % Specific Cell Lysis at 0.00125 ug/mL [1] [%] | % Specific Cell Lysis at 0.025 ug/mL [1] [%] | % Specific Cell Lysis at 10 ug/mL [1] [%] | Response [2] | koff [2] [s⁻¹] | ELISA hIL-12RB2/control [3] | ELISA mIL-12RB2/control [4] | % Specific Cell Lysis at 0.5 ug/mL [1] [%] | Binder |
| --- | --- | --- | --- | --- | --- | --- | --- | --- |
| 48 | 47.5 | 64.9 | – | – | – | – | – | 20401-FcDE (Fc fusion) VHH-Fc chain: QVQLQESGGGLVQAGESLTLSCIASGVIKDYAMGWFRQAPGKEREFVAAISWSGVSIYYADSVKGRFTISRDNAKNTVYLQMNSLEPEDTAVYYCAGTEGAYTVAGGSTFGYDMDYWGKGTQVTVSSAPELLGGPDVFLFPPKPKDTLMISRTPEVTCVVVDVSHEDPEVKFNWYVDGVEVHNAKTKPREEQYNSTYRVVSVLTVLHQDWLNGKEYKCKVSNKALPAPEEKTISKAKGQPREPQVYTLPPSRDELTKNQVSLTCLVKGFYPSDIAVEWESNGQPENNYKTTPPVLDSDGSFFLYSKLTVDKSRWQQGNVFSCSVMHEALHNHYTQKSLSLSPGK |
| – | – | – | 0.59 | 0.00517 | 3.91 | 1.9 | – | anti-IL-12Rβ2 VHH clone 3CAH60 (clone ID 20361) (VHH, not shown: small tags and cut ends, periplasmic extract) VHH: QVQLQESGGGLVQPGGSLILSCVASGFAMDYLTMGWSREAPRNEREDISCIDTSGRSTDYLDSVKGRFTISRDNAKNTLYLHMNDLKPEDTAEYYCLASTSYCGAGYEYRGQGTQVTVSS |
| – | – | – | 0.576 | 0.00483 | 7.57 | 0.4 | – | anti-IL-12Rβ2 VHH clone 3CAH28 (clone ID 20356) (VHH, not shown: small tags and cut ends, periplasmic extract) VHH: QVQLQESGGGLVQSGASLRLSCAASERTLSGYAMGWFRQAPGKEREFVAAIRWSGSSTYYAESVEGRFTISRDNAKNTVYLQMNILKPEDTAVYYCAAGSDYADEYDYWGQGTQVTVSS |
| 45.4 | 47.6 | – | – | – | – | – | – | 20400-FcDE (Fc fusion) VHH-Fc chain: QVQLQESGGGLVQPGGSLRLSCAASGRTINAYIMGWFRQAPGKEREFVAAVSGSGGSTYYADSVKGRFTISRDNAKNTVNLQMDNLRSEDTDVYYCAATYESVYLQNPGQYDYWGQGTQVTVSSAPELLGGPDVFLFPPKPKDTLMISRTPEVTCVVVDVSHEDPEVKFNWYVDGVEVHNAKTKPREEQYNSTYRVVSVLTVLHQDWLNGKEYKCKVSNKALPAPEEKTISKAKGQPREPQVYTLPPSRDELTKNQVSLTCLVKGFYPSDIAVEWESNGQPENNYKTTPPVLDSDGSFFLYSKLTVDKSRWQQGNVFSCSVMHEALHNHYTQKSLSLSPGK |
| – | – | – | 0.643 | 0.00622 | 3.51 | 0.868 | – | anti-IL-12Rβ2 VHH clone 2CRH62 (clone ID 20368) (VHH, not shown: small tags and cut ends, periplasmic extract) VHH: QVQLQESGGGLVQPGGSLRLSCVESGRTFTVYDMGWFRQAPGKEREIVAAISADGATSIYQDSVKGRFTISRDNDAKNTVYLQMNSLKPEDTAVYYCAAGRSLIYNLYRANNTDYWGQGTQVTVSS |
